Molecular target: fluorescent Aβ (1–42) (fluorophore label; fluorophore and position not stated)
Experiment: fluorescence polarisation

B1: ABAD Y168G mutant, purified protein (enzyme, human)
chain: MAAACRSVKGLVAVITGGASGLGLATAERLVGQGASAVLLDLPNSGGEAQAKKLGNNCVFAPADVTSEKDVQTALALAKGKFGRVDVAVNCAGIAVASKTYNLKKGQTHTLEDFQRVLDVNLMGTFNVIRLVAGEMGQNEPDQGGQRGVIINTASVAAFEGQVGQAAGSASKGGIVGMTLPIARDLAPIGIRVMTIAPGLFGTPLLTSLPEKVCNFLASQVPFPSRLGDPAEYAHLVQAIIENPFLNGEVIRLDGAIRMQP
fold reduction in the calculated Kd against WT: ~11 fold

Reference: publication PMC13354580 (Nature Communications, 2026)
